Numbering of substitutions follows the chain as printed. Names may count otherwise.
B1: BsAbfA (Bacillus subtilis subsp. subtilis str. 168) (protein)
chain: MKKARMIVDKEYKIGEVDKRIYGSFIEHMGRAVYEGIYEPDHPEADEDGFRKDVQSLIKELQVPIIRYPGGNFLSGYNWEDGVGPVENRPRRLDLAWQTTETNEVGTNEFLSWAKKVNTEVNMAVNLGTRGIDAARNLVEYCNHPKGSYWSDLRRSHGYEQPYGIKTWCLGNEMDGPWQIGHKTADEYGRLAAETAKVMKWVDPSIELVACGSSNSGMPTFIDWEAKVLEHTYEHVDYISLHTYYGNRDNNLPNYLARSMDLDHFIKSVAATCDYVKAKTRSKKTINLSLDEWNVWYHSNEADKKVEPWITARPILEDIYNFEDALLVGSLLITMLQHADRVKIACLAQLVNVIAPIMTEKGGEAWRQPIFYPYMHASVYGRGESLKPLISSPKYDCSDFTDVPYVDAAVVYSEEEETLTIFAVNKAEDQMETEISLRGFESYQIAEHIVLEHQDIKATNQHNRKNVVPHSNGSSSVSENGLTAHFTPLSWNVIRLKKQS
notes: full ORF, codon-optimised, N-terminal His-tag (pET-28a), E. coli BL21(DE3), Ni-NTA purified, approx. 60 kDa; GH51
B2: BsAbfA (Bacillus subtilis subsp. subtilis str. 168; E173Q) (protein)
chain: B1 chain with E173Q
notes: as for B1
B3: BsAbfA (Bacillus subtilis subsp. subtilis str. 168; E292D) (protein)
chain: B1 chain with E292D
notes: as for B1
B4: BsAbfA (Bacillus subtilis subsp. subtilis str. 168; E292Q) (protein)
chain: B1 chain with E292Q
notes: as for B1
B5: BsAbfA (Bacillus subtilis subsp. subtilis str. 168; E173D) (protein)
chain: B1 chain with E173D
notes: as for B1

Substrate: O=[N+]([O-])c1ccc(O[C@@H]2O[C@@H](CO)[C@H](O)[C@H]2O)cc1
Assay: purified protein
Assay type: biochemical, Bacillus subtilis
Conditions: pH 5, 40 °C, 50 mM citric acid/sodium citrate

Row | Protein | Km | kcat | kcat/Km
1 | B1 | 600 ± 80 µM | 109 ± 8.6 s⁻¹ | 182000 ± 6900 M⁻¹ s⁻¹
2 | B2 | 400 ± 70 µM | 2.5 ± 2.1 s⁻¹ | 6300 ± 90 M⁻¹ s⁻¹
3 | B3 | 700 ± 60 µM | 0.9 ± 0.05 s⁻¹ | 1300 ± 30 M⁻¹ s⁻¹
4 | B4 | 700 ± 90 µM | 1.6 ± 0.04 s⁻¹ | 2300 ± 50 M⁻¹ s⁻¹
5 | B5 | 200 ± 50 µM | 0.5 s⁻¹ | 2500 ± 60 M⁻¹ s⁻¹

From paper PMC8003784, “Two Key Amino Acids Variant of α-L-arabinofuranosidase from Bacillus subtilis Str. 168 with Altered Activity for Selective Conversion Ginsenoside Rc to Rd” (Molecules, 2021)
